Where a chain is given by its changes, count along the chain named.
T1: RSV F protein mutant pXCS734 (RSV A2, UniProt P03420 26-109)
T1 chain 1: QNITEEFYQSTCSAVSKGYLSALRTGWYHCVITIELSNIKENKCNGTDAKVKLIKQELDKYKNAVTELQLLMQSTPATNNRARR
T1 chain 2: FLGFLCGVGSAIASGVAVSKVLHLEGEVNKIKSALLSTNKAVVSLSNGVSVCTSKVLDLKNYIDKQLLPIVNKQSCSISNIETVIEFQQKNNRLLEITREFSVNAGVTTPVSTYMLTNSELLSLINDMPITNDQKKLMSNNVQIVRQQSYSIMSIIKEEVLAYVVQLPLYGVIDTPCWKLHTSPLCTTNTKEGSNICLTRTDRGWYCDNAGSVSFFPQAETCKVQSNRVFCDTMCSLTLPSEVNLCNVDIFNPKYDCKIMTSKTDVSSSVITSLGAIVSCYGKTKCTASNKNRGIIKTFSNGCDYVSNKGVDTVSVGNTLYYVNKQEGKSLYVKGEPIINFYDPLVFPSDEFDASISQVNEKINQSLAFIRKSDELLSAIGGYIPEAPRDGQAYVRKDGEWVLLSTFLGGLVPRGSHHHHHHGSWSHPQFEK

T2: RSV F protein mutant pXCS845 (RSV A2, UniProt P03420 26-109)
T2 chain 1: T1 chain 1 with C30S, T78C
T2 chain 2: T1 chain 2 with C6L, I12C, C52L, C235N, D350S

T3: RSV F protein mutant pXCS881 (RSV A2, UniProt P03420 26-109)
T3 chain 1: T1 chain 1
T3 chain 2: T1 chain 2 with V160I, D350S, E351Q, D353S

T4: RSV F protein mutant pXCS882 (RSV A2, UniProt P03420 26-109)
T4 chain 1: T1 chain 1
T4 chain 2: T1 chain 2 with S54I, V160I, D350S, E351Q, D353S

T5: RSV F protein mutant pXCS849 (RSV A2, UniProt P03420 26-109)
T5 chain 1: T1 chain 1 with C30S, T78C
T5 chain 2: T1 chain 2 with C6L, I12C, C52L, V160I, C235N, D350S

B1: AM22 (antibody, V domains shown)
VH: QVQLVQSGAEVKKPGATVKVSCKISGHTLIKLSIHWVRQAPGKGLEWMGGYEGEVDEIFYAQKFQHRLTVIADTATDTVYMELGRLTSDDTAVYFCGTLGVTVTEAGLGIDDYWGQGTLVTVSS
VL: EIVLTQSPGTLSLSPGERATLSCRASQIVSRNHLAWYQQKPGQAPRLLIFGASSRATGIPVRFSGSGSGTDFTLTINGLAPEDFAVYYCLSSDSSIFTFGPGTKVDFK
B2: MPE8 (antibody, V domains shown)
VH: EVQLVESGGGLVKPGGSLRLSCAASGFTFSSYSMNWVRQAPGKGLEWVSSISASSSYSDYADSAKGRFTISRDNAKTSLFLQMNSLRAEDTAIYFCARARATGYSSITPYFDIWGQGTLVTVSS
VL: QSVVTQTPSVSGAPGQRVTISCTGSSSNIGAGYDVHWYQQLPGTAPKLLIYDNNNRPSGVPDRFSASKSGTSASLAITGLQAEDEADYYCQSYDRNLSGVFGTGTKVTVL
notes: also called MPEG

How the values were obtained:
Test in all cases: BLI (Octet), F on anti-HIS tip, 20 nM mAb
[1] = biological target: RSV F protein mutant pXCS854 (RSV A2, UniProt P03420 26-109)
[2] = biological target: RSV F protein mutant pXCS760 (RSV A2, UniProt P03420 26-109)
[3] = biological target: RSV F protein mutant pXCS848 (RSV A2, UniProt P03420 26-109)
[4] = biological target: T1, RSV F protein mutant pXCS734
[5] = biological target: RSV F protein mutant pXCS883 (RSV A2, UniProt P03420 26-109)
[6] = biological target: T2, RSV F protein mutant pXCS845
[7] = biological target: T3, RSV F protein mutant pXCS881
[8] = biological target: T4, RSV F protein mutant pXCS882
[9] = biological target: T5, RSV F protein mutant pXCS849

Row | Binder | Response (nm shift) [1] [nm] | Response (nm shift) [2] [nm] | Response (nm shift) [3] [nm] | Response (nm shift) [4] [nm] | Response (nm shift) [5] [nm] | Response (nm shift) [6] [nm] | Response (nm shift) [7] [nm] | Response (nm shift) [8] [nm] | Response (nm shift) [9] [nm]
1 | B1 | 0.453 | 0.121 | 0.109 | 0.284 | 0.233 | 0.314 | 0.178 | 0.219 | 0.43
2 | B2 | 0.886 | 0.151 | 0.266 | 0.818 | 0.704 | 0.699 | 0.763 | 0.691 | 0.908
